{"source": "the NTF2 design screens of Basanta et al. (2020)", "data": [{"assay": "protease stability score; higher = more stable; yeast display proteolysis, trypsin and chymotrypsin;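 further: relative to predicted unfolded state with 0 unfolded-like and 1 meaning tenfold more protease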", "values": [{"sequence": "SEKDDHALRVLEEYLHLFLTGNEEVMERLVDPHVRFIYGDKEFHGRELMIRWIREEREQYDHIHWEIRHFESQGDKAHSEVELRIRQGDKRIHVDMHIHIEVVNGRWKRIEVRER", "protease stability score": 1.78}, {"sequence": "DEDMELVLKWVHEFAEMFETGNEHELLRMLDPHVRLEYGEKEIHGREDITRFWEEKIRKLGIKHIRVHIRDARIQGEKLHLDTELKLDYNGKTDHERYIIIIIKINGKWSIKSFQVE", "protease stability score": 1.55}, {"sequence": "DEESKFLTEMLEDILRALITGDEEHLQTLMDPDVRVEVGDKLFIGREQASEFWRREFEEIRIDDFRIHHLEVIDGRVHVHGRVDGTIGDKHHRREIIIHDLIVNGRIKKIRIEIH", "protease stability score": 1.31}, {"sequence": "DDEDRKKADEMLKALKHGDPDRVRELMDPNAKAVYGDKRIRGRDDFVEDMFRKQREIKIDMKIEEFRVNGNHAVFTVDVIEDKDGRPKRFKARVVITLHNGKIIDIKVEEEH", "protease stability score": 1.49}, {"sequence": "DEEEETIRKYIEMMIRLWETGDEKSMLDLFDPDVRTLVNGQHLHGRHALEILLRRIDVRRHVHLHHIDLQGNKVEIDSRLEGTVDGKRDDIELTHHMVKVDGQWVIHNVEVR", "protease stability score": 1.02}, {"sequence": "SHEDELIEKTLHITLEAYTTGDEHTVTRMLDPHVKILFNGVELIGRELVWEHLKEIRMHWHHVHIEDIKRQGEKIHITGRLYMEIRQGDYRERSTYRTRIITLKINGRWFIESLEIN", "protease stability score": 1.95}, {"sequence": "NEKEEESKRFIELFMELIVTGNEEVLYKLADPTVQWRADVDGQEINLHGWEHIHDEINKFPNITLELEEREIQGDKVDIRTRLHIGDKTRDTRVIIIVINGRVKQIHIEIR", "protease stability score": 2.28}, {"sequence": "DEMEREVEKWVRIYLHALRTGDERILENMVDPEARTHINGRHDHGRDSLHKILKEMGFDHMHVEIRDVRVVNGQIHLEEIIRVDVDGRRITITVEVVIVKIDGRWIVKSFHIR", "protease stability score": 1.17}, {"sequence": "DEETKKLRKFMEQFIEALRTGDEEILEHLIDPNVRNIVGDKQEHGRELLLTWLVKYKGVRWMIDHITIINGVIEIHGTLQVGDKEISIHIHVLVINGKVKSVEIREN", "protease stability score": 1.47}, {"sequence": "DEEDEITHKMLRRWFEILATGNEHLFQHYADPNVLVRYEVGDKEWRLHGREEALRYWSELRIHELKVEHFTEVGDKVHMDTRRKGEFDGRRDTKKTRVHIVIIDGRLHNVELRIV", "protease stability score": 1.14}, {"sequence": "DELDRTVEEVSRYFMRNYITGNEERLWEMADPHVKFISEHHESHGMEEHKKFLEEAGITNVKFDIHDQKVFNGVVVVNGKIHVNGRTVDVRLISEKFDGRWHLHIIRVD", "protease stability score": 1.15}, {"sequence": "SEEEHWLDDAFRWLIELIFTGDETEIEKMIDPNVKIHIGEKNNHGREIMIEWLERLGVKHVREMRIRHVHRQGNKLIVHGEIHREVDGVKIETESLIVAKKVDGQWHLQSVRVN", "protease stability score": 2.37}, {"sequence": "NHQQIAFHFLWDIVEYLLMTGDEHILEKYADPTVKTLVDGRELHGREDVIRFFHEMFKRIDHIQDVKLHDYRFQGNKVEIDSRIIGTIDGQRDVITVTWRVLKVDGRWLIHTVELH", "protease stability score": 1.69}, {"sequence": "SEHDEMIHKIAKEIMEVLVTGNEEWLDKLVDPHMRLEFNGKDIHGREKLNELLRKFKNVKLEYHINSIEAWDGRTQVNGKVHIEYGDKSRIKDTRLHVLIWDGKIREMRVDHD", "protease stability score": 2.23}, {"sequence": "SETKKLWKDLADEVLRAWETGNEEEMEKMLDPHTRLHIHINGRDFHAHGRENIIRMMKFTLDFLGIDHFILRRVTYINGVVHIHQQVIINGQESNVRLEVEIIDGVWHEISVDIH", "protease stability score": 1.44}, {"sequence": "DEMDEHARDLFELLLRIWLTGDEHELRELADPHVRIHVGDKNHVGMDKFAHEFIRHVQERGVRIEIRIRDHHAINGVSHSDGEIVLNYDGREYRMDTKIIMVIYNGKVKELRFHIR", "protease stability score": 1.39}, {"sequence": "SEDHHSLRNAWELLIKSIKTGDENLMERFADPSTKSRIDGVELVGREEVVHYFMQLRVKDVKLDEVDVVDGRVVIDGTLHGEYNGREETHKVRLFINKVDGQWILHSVEFH", "protease stability score": 0.938}, {"sequence": "SEEEQRQHEFMILWLEYFRTGNEEELLELIDPNVLLVMDINGRNELNHGRELWHEFMNRFWEKIKNATFIVHDKRVINGRIHMDGRLDINGREYTVHLHIEVINGVTKRFEIRIR", "protease stability score": 1.68}, {"sequence": "DDSRRVAEEVSELIKILYDTGDWRHLHELLDPHVRIEIGDKEFHGRDTWLREMIRADHVEYHTHDYRSQGNKIFIRGHLIVHINGRTHKEDVRLHVHKVDGQWIIDSIEMK", "protease stability score": 1.01}, {"sequence": "DDEKEEVERLARLFIHYVLTGDEDTLREMVDPNVRIRIGDKRNHGMKFLLHLITVWLERVDHVRIEVDESRLVNGQLNMTGTLHLHQGDKTQELRTRSHLVIVNGVMKEITFEYD", "protease stability score": 2.06}, {"sequence": "SEDDDHSEHMYRRILELWKTGNWRLFHELLDPNTRFEIGDKEFHGREEVVEYLRRDLEKFKNIRFHIRQHEVVGNKLHIDGEIIFNGKHEHVHIILLIVDGKIKEIRFESR", "protease stability score": 2.72}, {"sequence": "SDVLESTKSFLRFFVHAMITGNEEELSRNLDPNVRLLFNGVNYHGMEELVRLLIELGIKIHEWHTHDLKFQGEKLYYLGRRDGEVNGRRSEEEVEFIIFKFNGRWFLHEMRIH", "protease stability score": 0.627}, {"sequence": "TEDERDMQEFYERLIHAIHTGDWREIRRQFDPNVLLNFNGKEIHGREQALRLMRELLHRADVIDDTKTKDLKFYNGRVELHIHEQGQINGQHFRSDVMLIVEKVNGRWYMKSYQID", "protease stability score": 1.37}, {"sequence": "DEQEKFSKEMARLFIELRLTGDWETFTHLADPDVLWEIHVDGQSERNIGWESVRHAMEKERHELRIEHIHIRDVKIQGNKIHINTEVVGQFNGRRFIVDSRIHIHIVNGRIKDVTIEIE", "protease stability score": 1.16}, {"sequence": "DHEEEEMRDRFKVLMRALLTGDFEELIRQMDPDYRLDINGRELIGREEYRKHLEKQLKHWRWKRIDVKHVETQGDKLHARINVHGDIDGRDINTETDWHLEVIDGRVRSEKISIR", "protease stability score": 1.58}, {"sequence": "DLDQELREKTIRIELKAWRTGDEDKIKELLDPNTRFIINGRHLIGREAIHILLEQIDHFKDLQPRHVDVINGVVRFDGHMEGTFNGVDQSTKVHIIAWKYNGRWFIESIIII", "protease stability score": 1.59}, {"sequence": "DSSENFMRHMMEEVWNALVTGDEKLFQRLADPDVRLHFNGVHTHGRENVLTFLRSLDEHLGVKHRSIHDFTIVGDYSHIDTTMEVGDKHWRIHLFLVIIDGRVHHIEIRIE", "protease stability score": 2.23}, {"sequence": "DELHEEYRKIYNIFRHLFETGDWDTWRKLADPHARFEYGEKVSHGREVASETIDWLLEHLRLEHFKLDHFTVQGNFFISDGTEHISYGDKTHTVKTRIILVRVNGVFHLVRIEFV", "protease stability score": 1.43}, {"sequence": "SEHHKEAREMVEELIRLYETGDEDTLRTLADPHVRQDINGVDYVGREFAADLLIDEMREIRSHIHVHRIHTYNGQVHVDGHLEFIIGDKSYRLRVHMVVEKVDGKWLHRSEHYK", "protease stability score": -0.116}, {"sequence": "SEEETHVKEAVKRSVDFLETGDERLFRELFDPNVRLIVNVGNKRVELHGWEEVVRWLREARLHRVILRTIRIQGDKAEVEGDVDGEINGRHDLHIIEWHFIVINGRFHSVSVRIE", "protease stability score": 1.05}, {"sequence": "DEHTSRLERLAHLFFESWITGDFDALLKYLDPNVRIEQGDKHIHGREVMFEHLERLLKHWWFHEHRLRDVKSVNGVSHLHVHQRNEINGVELRYDFHIHLYIVDGRLKSMEFRIS", "protease stability score": 1.07}, {"sequence": "DEDEEEARKSFKHLLRSRMTGDEDSLKSLIDPNARFDIDGKELIGREAEELLLEKFKNIKLHDVKLNDWRVDEHHVVWRIELDGFYNGKRDSLDFTLIVKKVNGRWVIHQVKLI", "protease stability score": 1.39}, {"sequence": "SEEEEILRRSVEVTLEAFKTGNERILREYLDPHVRFLYNGQEYHGWKDFVRFLINEVRRFDHVEIRLDHWEMQGEKAHFHGRLILDVNGRLEIFRVHIHLFKVDGKWTLRELRIE", "protease stability score": 1.83}, {"sequence": "SEEEHYMLKVAKLAVRNYFTGNEHVLDELFDPHTRQEVNGVENHGRETVRDFLREHLKHMRFHDFKIRDFKWQGDKAHTETETDVEIDGQRIPLRMEIIIIIIDGVPKSISLRLG", "protease stability score": 1.05}, {"sequence": "DETTEKNERYIERLHHYLETGNEEELLHLFDPNTKFVQGDKEIIGREEVRHWEEEKRRKMGIKHWDFEFRRVRIIGEKLIIHGKEIINFENHRLERTVEIHLLLIDGRVKEVVYHVN", "protease stability score": 1.2}, {"sequence": "SEEEEDSLIAWKLYFEIEQTGDEKSLEHYMDPDTRYSQGEFRMHGREYTYHIIFRNRKRLGWDRVEVRLHSYEIINGRIKLDMRVHVNGVDINLLVIAFKFNGKWTIETVRIE", "protease stability score": 1.36}, {"sequence": "DEKDRLSEELAKHLYRMMYTGDWERIFKMADPHVRLVIGDKEFHGRENFEETLRDHLEKIKNATMRLDDIELQGDKVHIFFTIHVNGREVEVEVHIRVIDGRIHHVDVQVRWV", "protease stability score": 1.49}, {"sequence": "DEENDLMLEMAFKFMHDWLTGDFDKETKLADPDVKYDVGEFRFHGREEVTKWLEDMERSLGIDHQFLNIHDLKVQGDKVHIKGELVLIVNGRKETRRVDLHFEIVDGRMRKVTIEKR", "protease stability score": 1}, {"sequence": "SEDNEIIHEMVQLFVDLFFTGDWEMLLSLFDPNVRMIVNGKTIHGRENIAHEVREFLERFKNVRFRDATIEHYSWQGDKLHAQIHIEGEINGRDRHSNVHIHITKIDGKWLITRIEVR", "protease stability score": 2.39}, {"sequence": "SEEEEELTKWKKILEEALKTGDWRLIEELFDPHVRFIINGRHIHGMEVRLKEQEELGVNHESQELRDKHIEHQGDKVVINGHLNKIVFVNGKDLHDRYDIIFIYTKINGRWYVKRMIVN", "protease stability score": 0.502}, {"sequence": "DEEERLSREILELNIEVLETGNEHVVRELLDPHVKMEVGDKEYHGREEFVTLFHHFGIDHFHIHEIRFIGNKAEMHVSSEINGRRFSILIIAHKVNGKWIMHTMHVE", "protease stability score": -0.037}, {"sequence": "DEDEHKYRRAAEEFFKILRTGDEDLWKRYADPTPILLLLVGDKIDEYHGMEEVMRVLHEEWRRLGVDHMHVKRVDLQGEKVEMDFTRHIGDKTIRITIIVVVIDGRMKSVEIRTH", "protease stability score": 0.8}, {"sequence": "DNEEKDNKTATKLLLDWLRTGDEESMSRNADPNTRLEIGDKEFHGREEVLRHLHELKRHFGIERFEVDIERVEIYGDKVVIHSRMNVNGQRREVIFIDRKIDGRWIFKSIELR", "protease stability score": 1.13}, {"sequence": "GENEQLIEEAVKMFMDIHHTGDWRDVHHLLDPHMRLDVNGVDYHGRDLWVRIAKEISEHARTEVRIRHLEIQGDKVIVHGQIILRIGDKTHVIDTRHIIIKINGRWKLHSVDIH", "protease stability score": 1.32}, {"sequence": "DEHDESVRTAWEYYKRVIETGDEDISKKLADPHMKFEFENHSIHGWENIYRELTRLMREMRIHHVEIEHFRVYGDFVEIHIRVDGTVNGRRIITKMDLYITKIDGKWYLHSRRIE", "protease stability score": 0.543}, {"sequence": "DDIEEILKEAFERLIHDLRTGNEDNLRSLIDPNVRLNWNGQELHGREHVLELLTRIKNLRIEDWTTKDQRYQGDKIEMDGILHTRIGDKEIHLETHIHVRKVDGRWKIEQLDFR", "protease stability score": 2}, {"sequence": "DEDTKLSKDAIRTFLESMVTGDEHILHRLADPNVKYSQGDKEYHGWEYAREFWSRVKNIRFHLKHYEVYGNKVHIEGELHVDGRHFEVHIVIIKFDGRWKIESHEIK", "protease stability score": 1.19}, {"sequence": "DEREEEMQRIMEDFIRAWSTGDEKRLKELIDPRDRMIINGKERHGMEEWKTLWETLGINYIDIEHVHLQGEKARIHGTSKFNGRHHEVRIEIRVVDGRFTEVHVDII", "protease stability score": 1.78}, {"sequence": "DEDSEMVWRMLEDWLHNFLTGNEELLEHLMDPNARFEQGDKEIHGREKIAKFLRKELEDLGVKIEFRDTSIKSINGRAHNDGTNIIRVNGREIRRDTRIDLTVIDGRIKEIRIEIN", "protease stability score": 1.28}, {"sequence": "SQEEKEIRDWLHILANARLTGDEDWLLKQADPNTRLEFNGVDLVGMEHNIKFLLHLERQHGMRLHNIHIHHVEVQGDKVESDIREDGEVNGRRMIFTSIIIVRKVNGRWILRSFHLH", "protease stability score": 1.21}]}]}
